Data: PMC2064744 (The Journal of Cell Biology, 2007)

What was measured:
[1] = target: T1, tandem L27 domain of rat CASK (L27NL27C_CASK, residues 329-460) (rat, UniProt Q62915 329-460); assay: SEC
T1 sequence: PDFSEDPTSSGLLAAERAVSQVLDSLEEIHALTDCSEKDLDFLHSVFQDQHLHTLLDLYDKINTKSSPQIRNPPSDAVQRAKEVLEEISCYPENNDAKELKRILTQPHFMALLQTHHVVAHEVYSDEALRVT

tandem PALS L27 domains = target: T2, tandem PALS L27 domains; assay: SEC
T2 chain: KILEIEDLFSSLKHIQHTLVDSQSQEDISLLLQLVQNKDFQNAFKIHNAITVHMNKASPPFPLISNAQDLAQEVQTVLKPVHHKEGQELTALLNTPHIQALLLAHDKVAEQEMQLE

B1: L27 domain of mouse MALS (L27_MALS, residues 2-78) (domain or fragment)
chain: AALGEPVRLERDICRAIELLEKLQRSGEVPPQKLQALQRVLQSEFCNAVREVYEHVYETVDISSSPEVRANATAKAT
stoichiometry N [1]: 1

B2: L27 domain of rat DLG (L27DLG, residues 1-65) (domain or fragment)
chain: MPVRKQDTQRALHLLEEYRSKLSQTEDRQLRSSIERVISIFQSNLFQALIDIQEFYEVTLLDNPK
stoichiometry N [1]: 1

B3: MALS L27 (in the MALS/PALS/PATJ L27 complex, unpublished data) (domain or fragment)
chain: AALVEPLGLERDVSRAVELLERLQRSGELPPQKLQALQRVLQSRFCSAIREVYEQLYDTLDITGSAEVRAHATAKAT
stoichiometry N (tandem PALS L27 domains): 1

B4: PATJ L27 (domain or fragment)
chain: MPENPAAEKMQVLQVLDRLRGKLQEKGDTTQNEKLSAFYETLKSPLFNQILTLQQSIKQLKGQLS
stoichiometry N (tandem PALS L27 domains): 1
